Measurements: article PMC10786891, “Massively parallel profiling of RNA-targeting CRISPR-Cas13d”

What follows are binders tested against T1, EsCas13d, nuclease-dead (Eubacterium siraeum, UniProt B0MS50, R295A;H300A;R849A;H854A) (assay: crRNA (strand 1, pre-loaded); Mg2+; 40 mM Tris-HCl pH 7.5, 150 mM NaCl, 6 mM MgCl2, 1 mM DTT, 0.1% Tween-20, 0.2 mg/ml BSA; 25 C; 10 min per concentration, then washed). Settings: tags: His6-TwinStrep-SUMO cleaved; N-terminal SNAP kept (SNAP-Surface 488); label: 3' end held by stalled T7 RNA polymerase.
T1 sequence: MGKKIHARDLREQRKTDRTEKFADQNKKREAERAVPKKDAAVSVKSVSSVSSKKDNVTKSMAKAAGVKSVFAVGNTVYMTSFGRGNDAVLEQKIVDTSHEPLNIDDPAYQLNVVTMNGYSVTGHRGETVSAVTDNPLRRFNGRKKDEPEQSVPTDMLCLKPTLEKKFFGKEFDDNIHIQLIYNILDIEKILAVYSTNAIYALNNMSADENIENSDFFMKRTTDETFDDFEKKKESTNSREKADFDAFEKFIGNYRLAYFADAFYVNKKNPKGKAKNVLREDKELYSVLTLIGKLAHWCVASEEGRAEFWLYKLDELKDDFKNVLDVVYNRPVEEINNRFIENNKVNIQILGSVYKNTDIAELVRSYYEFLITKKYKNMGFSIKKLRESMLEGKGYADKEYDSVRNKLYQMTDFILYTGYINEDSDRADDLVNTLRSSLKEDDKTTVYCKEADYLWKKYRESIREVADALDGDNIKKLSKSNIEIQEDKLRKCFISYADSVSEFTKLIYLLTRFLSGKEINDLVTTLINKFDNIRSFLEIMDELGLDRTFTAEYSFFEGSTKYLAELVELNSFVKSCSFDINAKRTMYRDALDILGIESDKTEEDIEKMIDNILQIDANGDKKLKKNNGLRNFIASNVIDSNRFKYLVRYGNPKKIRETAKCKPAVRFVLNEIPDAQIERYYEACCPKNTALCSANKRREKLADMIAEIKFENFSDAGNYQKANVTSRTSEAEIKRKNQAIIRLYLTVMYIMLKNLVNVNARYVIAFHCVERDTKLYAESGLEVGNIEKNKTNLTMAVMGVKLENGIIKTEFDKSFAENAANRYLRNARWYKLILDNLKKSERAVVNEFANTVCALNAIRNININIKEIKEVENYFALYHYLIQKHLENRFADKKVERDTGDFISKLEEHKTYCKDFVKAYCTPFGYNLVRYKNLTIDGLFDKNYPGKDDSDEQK

| Binder | Kd [nM] |
| --- | --- |
| target 1 insC 3' of 12,insG 3' of 6 (mixed) RNA 1: CACCCGUGCAAAAAUGCAGGGGUCUAAAACUGAGCGGAUAACCUCUCUAUGG RNA 2: GGGAAUGGAUCCACAUCUACGAAUUCGUACCAUAGAGAGGCUUAUCCGGCUCACCGAGAUCGGAAGAGCACACGU | 9.1 ± 1.6 |
| target 1 C7U,A14C (mixed) RNA 1: CACCCGUGCAAAAAUGCAGGGGUCUAAAACUGAGCGGAUAACCUCUCUAUGG RNA 2: GGGAAUGGAUCCACAUCUACGAAUUCGUACCAUAGAGCGGUUAUUCGCUCACCGAGAUCGGAAGAGCACACGU | 30 ± 4 |
| target 1 insU 3' of 21,insC 3' of 10 (mixed) RNA 1: CACCCGUGCAAAAAUGCAGGGGUCUAAAACUGAGCGGAUAACCUCUCUAUGG RNA 2: GGGAAUGGAUCCACAUCUACGAAUUCGUACCUAUAGAGAGGUUCAUCCGCUCACCGAGAUCGGAAGAGCACACGU | 51 ± 9 |
| target 1 G12A,G17C (mixed) RNA 1: CACCCGUGCAAAAAUGCAGGGGUCUAAAACUGAGCGGAUAACCUCUCUAUGG RNA 2: GGGAAUGGAUCCACAUCUACGAAUUCGUACCAUACAGAGAUUAUCCGCUCACCGAGAUCGGAAGAGCACACGU | 34 ± 8 |
| target 1 insA 3' of 12,insG 3' of 2 (mixed) RNA 1: CACCCGUGCAAAAAUGCAGGGGUCUAAAACUGAGCGGAUAACCUCUCUAUGG RNA 2: GGGAAUGGAUCCACAUCUACGAAUUCGUACCAUAGAGAGGAUUAUCCGCUCGACCGAGAUCGGAAGAGCACACGU | 30 ± 4 |
| target 1 insC 3' of 19 (mixed) RNA 1: CACCCGUGCAAAAAUGCAGGGGUCUAAAACUGAGCGGAUAACCUCUCUAUGG RNA 2: GGGAAUGGAUCCACAUCUACGAAUUCGUACCAUCAGAGAGGUUAUCCGCUCACCGAGAUCGGAAGAGCACACGU | 26.9 ± 2.2 |
| target 1 insC 3' of 18 (mixed) RNA 1: CACCCGUGCAAAAAUGCAGGGGUCUAAAACUGAGCGGAUAACCUCUCUAUGG RNA 2: GGGAAUGGAUCCACAUCUACGAAUUCGUACCAUACGAGAGGUUAUCCGCUCACCGAGAUCGGAAGAGCACACGU | 30.3 ± 1.9 |
| target 1 insU 3' of 20,insA 3' of 7 (mixed) RNA 1: CACCCGUGCAAAAAUGCAGGGGUCUAAAACUGAGCGGAUAACCUCUCUAUGG RNA 2: GGGAAUGGAUCCACAUCUACGAAUUCGUACCAUUAGAGAGGUUAUCACGCUCACCGAGAUCGGAAGAGCACACGU | 9.9 ± 0.6 |
| target 1 insG 3' of 10,insU 3' of 7 (mixed) RNA 1: CACCCGUGCAAAAAUGCAGGGGUCUAAAACUGAGCGGAUAACCUCUCUAUGG RNA 2: GGGAAUGGAUCCACAUCUACGAAUUCGUACCAUAGAGAGGUUGAUCUCGCUCACCGAGAUCGGAAGAGCACACGU | 21.8 ± 0.9 |
| target 1 insA 3' of 22,insU 3' of 13 (mixed) RNA 1: CACCCGUGCAAAAAUGCAGGGGUCUAAAACUGAGCGGAUAACCUCUCUAUGG RNA 2: GGGAAUGGAUCCACAUCUACGAAUUCGUACACAUAGAGAGUGUUAUCCGCUCACCGAGAUCGGAAGAGCACACGU | 20.6 ± 2.9 |
| target 1 insC 3' of 18,insA 3' of 8 (mixed) RNA 1: CACCCGUGCAAAAAUGCAGGGGUCUAAAACUGAGCGGAUAACCUCUCUAUGG RNA 2: GGGAAUGGAUCCACAUCUACGAAUUCGUACCAUACGAGAGGUUAUACCGCUCACCGAGAUCGGAAGAGCACACGU | 69 ± 10 |
| target 1 insC 3' of 20,insC 3' of 9 (mixed) RNA 1: CACCCGUGCAAAAAUGCAGGGGUCUAAAACUGAGCGGAUAACCUCUCUAUGG RNA 2: GGGAAUGGAUCCACAUCUACGAAUUCGUACCACUAGAGAGGUUACUCCGCUCACCGAGAUCGGAAGAGCACACGU | 8.9 ± 0.6 |
| target 1 G5A,G12U (mixed) RNA 1: CACCCGUGCAAAAAUGCAGGGGUCUAAAACUGAGCGGAUAACCUCUCUAUGG RNA 2: GGGAAUGGAUCCACAUCUACGAAUUCGUACCAUAGAGAGUUUAUCCACUCACCGAGAUCGGAAGAGCACACGU | 14.4 ± 1.4 |
| target 1 insG 3' of 7,insU 3' of 4 (mixed) RNA 1: CACCCGUGCAAAAAUGCAGGGGUCUAAAACUGAGCGGAUAACCUCUCUAUGG RNA 2: GGGAAUGGAUCCACAUCUACGAAUUCGUACCAUAGAGAGGUUAUCGCGCUUCACCGAGAUCGGAAGAGCACACGU | 6.4 ± 0.4 |
| target 1 C7U,U19A (mixed) RNA 1: CACCCGUGCAAAAAUGCAGGGGUCUAAAACUGAGCGGAUAACCUCUCUAUGG RNA 2: GGGAAUGGAUCCACAUCUACGAAUUCGUACCAAAGAGAGGUUAUUCGCUCACCGAGAUCGGAAGAGCACACGU | 34 ± 4 |
| target 1 insA 3' of 15,insG 3' of 6 (mixed) RNA 1: CACCCGUGCAAAAAUGCAGGGGUCUAAAACUGAGCGGAUAACCUCUCUAUGG RNA 2: GGGAAUGGAUCCACAUCUACGAAUUCGUACCAUAGAGAAGGUUAUCCGGCUCACCGAGAUCGGAAGAGCACACGU | 9.3 ± 0.5 |
| target 1 insU 3' of 20,insC 3' of 11 (mixed) RNA 1: CACCCGUGCAAAAAUGCAGGGGUCUAAAACUGAGCGGAUAACCUCUCUAUGG RNA 2: GGGAAUGGAUCCACAUCUACGAAUUCGUACCAUUAGAGAGGUCUAUCCGCUCACCGAGAUCGGAAGAGCACACGU | 62 ± 18 |
| target 1 insU 3' of 13,insC 3' of 5 (mixed) RNA 1: CACCCGUGCAAAAAUGCAGGGGUCUAAAACUGAGCGGAUAACCUCUCUAUGG RNA 2: GGGAAUGGAUCCACAUCUACGAAUUCGUACCAUAGAGAGUGUUAUCCGCCUCACCGAGAUCGGAAGAGCACACGU | 21 ± 4 |
| target 1 A9U,U10A (mixed) RNA 1: CACCCGUGCAAAAAUGCAGGGGUCUAAAACUGAGCGGAUAACCUCUCUAUGG RNA 2: GGGAAUGGAUCCACAUCUACGAAUUCGUACCAUAGAGAGGUAUUCCGCUCACCGAGAUCGGAAGAGCACACGU | 20.5 ± 2.1 |
| target 1 C2U,U3G (mixed) RNA 1: CACCCGUGCAAAAAUGCAGGGGUCUAAAACUGAGCGGAUAACCUCUCUAUGG RNA 2: GGGAAUGGAUCCACAUCUACGAAUUCGUACCAUAGAGAGGUUAUCCGCGUACCGAGAUCGGAAGAGCACACGU | 21 ± 4 |
| target 1 A9G,U19C (mixed) RNA 1: CACCCGUGCAAAAAUGCAGGGGUCUAAAACUGAGCGGAUAACCUCUCUAUGG RNA 2: GGGAAUGGAUCCACAUCUACGAAUUCGUACCACAGAGAGGUUGUCCGCUCACCGAGAUCGGAAGAGCACACGU | 33.8 ± 3.3 |
| target 1 insU 3' of 17,insG 3' of 8 (mixed) RNA 1: CACCCGUGCAAAAAUGCAGGGGUCUAAAACUGAGCGGAUAACCUCUCUAUGG RNA 2: GGGAAUGGAUCCACAUCUACGAAUUCGUACCAUAGUAGAGGUUAUGCCGCUCACCGAGAUCGGAAGAGCACACGU | 21 ± 1.2 |
| target 1 C4G,A9U (mixed) RNA 1: CACCCGUGCAAAAAUGCAGGGGUCUAAAACUGAGCGGAUAACCUCUCUAUGG RNA 2: GGGAAUGGAUCCACAUCUACGAAUUCGUACCAUAGAGAGGUUUUCCGGUCACCGAGAUCGGAAGAGCACACGU | 3.93 ± 0.23 |
| target 1 insU 3' of 13,insU 3' of 2 (mixed) RNA 1: CACCCGUGCAAAAAUGCAGGGGUCUAAAACUGAGCGGAUAACCUCUCUAUGG RNA 2: GGGAAUGGAUCCACAUCUACGAAUUCGUACCAUAGAGAGUGUUAUCCGCUCUACCGAGAUCGGAAGAGCACACGU | 16.6 ± 2.1 |
| target 1 insC 3' of 11,insG 3' of 7 (mixed) RNA 1: CACCCGUGCAAAAAUGCAGGGGUCUAAAACUGAGCGGAUAACCUCUCUAUGG RNA 2: GGGAAUGGAUCCACAUCUACGAAUUCGUACCAUAGAGAGGUCUAUCGCGCUCACCGAGAUCGGAAGAGCACACGU | 23.8 ± 1.5 |
| target 1 U3A,A9C (mixed) RNA 1: CACCCGUGCAAAAAUGCAGGGGUCUAAAACUGAGCGGAUAACCUCUCUAUGG RNA 2: GGGAAUGGAUCCACAUCUACGAAUUCGUACCAUAGAGAGGUUCUCCGCACACCGAGAUCGGAAGAGCACACGU | 14.6 ± 2 |
| target 1 C7A,G12C (mixed) RNA 1: CACCCGUGCAAAAAUGCAGGGGUCUAAAACUGAGCGGAUAACCUCUCUAUGG RNA 2: GGGAAUGGAUCCACAUCUACGAAUUCGUACCAUAGAGAGCUUAUACGCUCACCGAGAUCGGAAGAGCACACGU | 16.4 ± 1.1 |
| target 1 G17A,C22A (mixed) RNA 1: CACCCGUGCAAAAAUGCAGGGGUCUAAAACUGAGCGGAUAACCUCUCUAUGG RNA 2: GGGAAUGGAUCCACAUCUACGAAUUCGUAACAUAAAGAGGUUAUCCGCUCACCGAGAUCGGAAGAGCACACGU | 57 ± 7 |
